Results taken from patent US20240116985A1, “STAPLED PEPTIDES AND METHODS THEREOF” (priority 2020, published 2024).
Starred links: 1 amine or outer side, 2 acyl side, 3 side chain; linkers in the order of their positions; H or OH if unused. Positions of bridges follow the written chain, without caps; N, C: chain ends. Non-standard residues stand in square brackets, D forms with d. Primed or numbered codes have the meaning given here. PyrS2″ = (S)-3-amino-1-((pent-4-en-1-yloxy)carbonyl)pyrrolidine-3-carboxylic acid (stapling residue), C=CCCCOC(=O)N1CC[C@@](N[*:1])(C(=O)[*:2])C1; B5(4) = 2,2-bis(4-pentenyl)glycine = 2-amino-2-(pent-4-en-1-yl)hept-6-enoic acid (stitching residue), C=CCCCC(CCCC=C)(N[*:1])C(=O)[*:2]; B5(5) = 2,2-bis(4-pentenyl)glycine, 2-amino-2-(pent-4-en-1-yl)hept-6-enoic acid (stitching residue), C=CCCCC(CCCC=C)(N[*:1])C(=O)[*:2]; PyrS2 = (S)-3-amino-1-((pent-4-en-1-yloxy)carbonyl)pyrrolidine-3-carboxylic acid, C=CCCCOC(=O)N1CC[C@@](N[*:1])(C(=O)[*:2])C1; B5(3) = 2,2-bis(4-pentenyl)glycine (stitching residue), C=CCCCC(CCCC=C)(N[*:1])C(=O)[*:2]; B5 = 2-amino-2-(pent-4-en-1-yl)hept-6-enoic acid, C=CCCCC(CCCC=C)(N[*:1])C(=O)[*:2]; Phe(3-COOH) = N[C@@H](Cc1cccc(C(=O)O)c1)C(=O)O; Phe(2-CF3) = N[C@@H](Cc1ccccc1C(F)(F)F)C(=O)O; Ala(4-thiazolyl) = N[C@@H](Cc1cscn1)C(=O)O; Bta = N[C@@H](Cc1csc2ccccc12)C(=O)O; αAllylPro = C=CC[C@@]1(C(=O)O)CCCN1; tBuAla = CC(C)(C)C[C@H](N)C(=O)O; Gly(cBu) = N[C@H](C(=O)O)C1CCC1; 3Thi = N[C@@H](Cc1ccsc1)C(=O)O; Nle = CCCC[C@H](N)C(=O)O; Ac5c = NC1(C(=O)O)CCCC1; Aib = CC(C)(N)C(=O)O

How the values were obtained:
[1] = target: full-length beta-Catenin (Uniprot ID P35222) (Homo sapiens (Human)) (UniProt P35222); assay: fluorescence polarization competition, peptide titrated against full-length beta-catenin + 5FAM-TCF4(10-53)
Sequence of full-length beta-Catenin (Uniprot ID P35222) (Homo sapiens (Human)) (P35222 2-781 limits assumed): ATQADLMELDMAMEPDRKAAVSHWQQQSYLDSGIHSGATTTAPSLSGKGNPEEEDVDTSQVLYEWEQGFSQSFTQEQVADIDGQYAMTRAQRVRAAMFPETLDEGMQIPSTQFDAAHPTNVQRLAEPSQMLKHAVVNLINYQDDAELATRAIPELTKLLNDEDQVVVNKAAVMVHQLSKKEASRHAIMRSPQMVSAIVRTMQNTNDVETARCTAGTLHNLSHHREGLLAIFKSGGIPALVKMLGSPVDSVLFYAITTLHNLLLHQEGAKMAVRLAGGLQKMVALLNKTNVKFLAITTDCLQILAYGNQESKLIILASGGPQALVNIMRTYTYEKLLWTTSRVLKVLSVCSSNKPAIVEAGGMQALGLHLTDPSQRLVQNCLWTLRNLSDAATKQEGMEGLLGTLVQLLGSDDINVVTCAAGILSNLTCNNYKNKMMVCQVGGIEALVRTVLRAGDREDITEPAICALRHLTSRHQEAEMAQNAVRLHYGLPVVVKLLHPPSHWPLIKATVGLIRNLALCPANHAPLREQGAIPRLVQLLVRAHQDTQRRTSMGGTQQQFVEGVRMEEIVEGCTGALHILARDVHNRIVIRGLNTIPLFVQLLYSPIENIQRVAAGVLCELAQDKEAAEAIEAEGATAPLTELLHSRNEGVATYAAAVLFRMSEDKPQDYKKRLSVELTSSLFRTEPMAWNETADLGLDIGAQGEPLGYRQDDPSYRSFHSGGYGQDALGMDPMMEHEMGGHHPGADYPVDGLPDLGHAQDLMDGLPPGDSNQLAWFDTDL

[2] = target: full-length beta-Catenin (Uniprot ID P35222) (Homo sapiens (Human)) (UniProt P35222); assay: fluorescence polarization competition; 10 nM full-length beta-catenin with 10 nM 5FAM-TCF4(10-53) probe as competitor
[3] = target: full-length beta-Catenin (Uniprot ID P35222) (Homo sapiens (Human)) (UniProt P35222); assay: cell-based or functional assay
Bcat-Halo = Bcat-Halo (UniProt P35222); assay: NanoBRET Abs IC50, HEK293 cells; Bcat-Halo / TCF4-Luc engagement
Sequence of Bcat-Halo (P35222 whole entry): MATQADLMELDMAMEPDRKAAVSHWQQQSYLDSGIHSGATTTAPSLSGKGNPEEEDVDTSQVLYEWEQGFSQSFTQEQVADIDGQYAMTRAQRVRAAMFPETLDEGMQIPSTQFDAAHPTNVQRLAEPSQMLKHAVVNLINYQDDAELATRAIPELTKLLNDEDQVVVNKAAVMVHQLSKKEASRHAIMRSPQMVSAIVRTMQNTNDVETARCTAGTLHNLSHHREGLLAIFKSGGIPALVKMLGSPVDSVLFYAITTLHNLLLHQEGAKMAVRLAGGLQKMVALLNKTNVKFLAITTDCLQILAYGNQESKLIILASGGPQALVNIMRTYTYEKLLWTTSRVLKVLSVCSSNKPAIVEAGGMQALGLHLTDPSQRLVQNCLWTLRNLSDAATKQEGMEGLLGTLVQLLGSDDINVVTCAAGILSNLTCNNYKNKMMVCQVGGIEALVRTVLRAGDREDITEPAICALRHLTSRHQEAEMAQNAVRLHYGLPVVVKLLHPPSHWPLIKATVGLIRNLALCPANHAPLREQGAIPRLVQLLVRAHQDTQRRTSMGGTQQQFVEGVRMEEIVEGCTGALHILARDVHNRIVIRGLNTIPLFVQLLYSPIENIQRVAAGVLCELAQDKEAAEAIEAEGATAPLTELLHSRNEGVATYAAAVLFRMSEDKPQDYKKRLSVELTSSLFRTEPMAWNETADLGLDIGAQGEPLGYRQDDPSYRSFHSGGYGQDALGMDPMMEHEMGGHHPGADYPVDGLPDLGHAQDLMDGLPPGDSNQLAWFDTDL

[4] = target: full-length beta-Catenin (Uniprot ID P35222) (Homo sapiens (Human)) (UniProt P35222); assay: fluorescence polarization competition; full-length beta-catenin, competitor 5FAM-TCF4(10-53)

Binder | EC50 [1] | IC50 [2] | DLD1 4% Abs IC50 [3] | IC50 (Bcat-Halo) | IC50 [4]
Ac-[αAllylPro]D[tBuAla][B5(3)]DDAA[Ala(4-thiazolyl)]N[PyrS2″][3Thi][Bta]Q-NH2 (staple 1-4, 4-11) [I-812] | 33 nM | 33 nM |  |  | 
Ac-[αAllylPro]D[tBuAla][B5]DDAAFN[PyrS2″][3Thi][Bta]T-NH2 (staple 1-4, 4-11) [I-814] | 7 nM | 7 nM |  |  | 
Ac-[αAllylPro]D[tBuAla][B5(3)]DDAAFT[PyrS2″][3Thi][Bta]Q-NH2 (staple 1-4, 4-11) [I-809] | 5 nM | 5 nM |  |  | 
Ac-[αAllylPro]D[tBuAla][B5]DDAAFN[PyrS2″][3Thi][Bta]S-NH2 (staple 1-4, 4-11) [I-815] | 5 nM | 5 nM |  |  | 
Ac-[αAllylPro]D[tBuAla][B5]DDAAFN[PyrS2″][3Thi][Bta]N-NH2 (staple 1-4, 4-11) [I-816] | 5 nM | 5 nM |  |  | 
Ac-[αAllylPro]D[tBuAla][B5(3)]DDAAFF[PyrS2″][3Thi][Bta]H-NH2 (staple 1-4, 4-11) [I-808] | 5 nM | 5 nM |  |  | 
Ac-[αAllylPro]D[tBuAla][B5]DDAAFN[PyrS2″][3Thi][Bta][dH]-NH2 (staple 1-4, 4-11) [I-813] | 7 nM | 7 nM |  |  | 
Ac-[αAllylPro]D[tBuAla][B5(3)]DDAAFT[PyrS2″][3Thi][Bta]H-NH2 (staple 1-4, 4-11) [I-810] | 6 nM | 6 nM |  |  | 

Now from value to binder:

EC50 [1] | IC50 [2] | DLD1 4% Abs IC50 [3] | IC50 (Bcat-Halo) | IC50 [4] | Binder
 |  | 700 nM | 8200 nM | 110 nM | Ac-[αAllylPro]D[tBuAla][B5(5)]D[Phe(3-COOH)]AAFL[PyrS2][Phe(2-CF3)][Bta]QL[Nle]-NH2 (staple 1-4, 4-11) [I-2391]
 |  | 1200 nM | 5700 nM | 133 nM | Ac-[αAllylPro]D[tBuAla][B5(5)]D[Phe(3-COOH)]AAFL[PyrS2″][Phe(2-CF3)][Bta]QL[Gly(cBu)]-NH2 (staple 1-4, 4-11) [I-2388]
 |  | 1500 nM | 7100 nM | 120 nM | Ac-[αAllylPro]D[tBuAla][B5(5)]D[Phe(3-COOH)]AAFL[PyrS2″][Phe(2-CF3)][Bta]QL[Ac5c]-NH2 (staple 1-4, 4-11) [I-2387]
 |  | 5600 nM | > 20000 nM | 61 nM | Ac-[αAllylPro]D[tBuAla][B5(5)]D[Phe(3-COOH)]AAFL[PyrS2][Phe(2-CF3)][Bta]QLR-NH2 (staple 1-4, 4-11) [I-2393]
 |  | 1400 nM | 9100 nM | 22 nM | Ac-[αAllylPro]D[tBuAla][B5(5)]D[Phe(3-COOH)]AAFL[PyrS2][Phe(2-CF3)][Bta]QLN-NH2 (staple 1-4, 4-11) [I-2390]
 |  | 700 nM | 2800 nM | 75.5 nM | Ac-[αAllylPro]D[tBuAla][B5(5)]D[Phe(3-COOH)]AAFL[PyrS2″][Phe(2-CF3)][Bta]QL[Aib]-NH2 (staple 1-4, 4-11) [I-2386]
